Results on 1 substance are retold here after PMC4497383.

The target in the test is 3xFLAG-tagged nascent chain of Sec61β with the transferrin receptor TMD, truncated at position 128 (TMD exposed). As to the kind of experiment: co-IP; unbound fractions of the translation reactions after anti-FLAG purification of the RNCs, immunoblotted relative to serial dilutions of total lysate (depletion). For orientation: Immunoblotting shows a protein as a band on a membrane.

For the substance “SRP54 subunit of the signal recognition particle (SRP) (from UniProt G1STX4 1-499) (natural protein)”, the percent of SRP in the lysate depleted was 90%.
